{"source": "paper PMC5291005", "about": "“Listeria monocytogenes 10403S Arginine Repressor ArgR Finely Tunes Arginine Metabolism Regulation under Acidic Conditions” (Frontiers in Microbiology, 2017)", "molecular_target": "the molecule itself", "assay": "cross-linking; purified N-terminal His6-ArgR cross-linked with various amounts of glutaraldehyde (multimers at 0.05%) in 50 mM HEPES pH 8.0, 150 mM KCl, 1 mM L-arginine, with or without 1% beta-mercaptoethanol, room temperature, 2 h; 10% SDS-PAGE, Coomassie staining", "note": "Values joined by “and” are separate entries in the source; they are usually repeats but may differ in a detail not shown here. Equal entries are not always repeated.", "data": [{"protein": "Listeria monocytogenes 10403S arginine repressor ArgR (natural protein, UniProt B8DFW1 1-149, looked up, ArgR, arginine repressor of the ArgR/AhrC family, Listeria monocytogenes strain 10403S; full-length ORF amplified from the 10403S genome; the his-tagged protein runs at about 23 kDa; also called recombinant ArgR; his-tagged ArgR protein; not shown: His6, N-terminal, kept) MNKGHRHIIIRELITSNEIDTQEDLVELLLERDVKVTQATVSRDIKELHLVKVPTQTGGYKYSLPADNSFNPHQKLKRALIDCFIGIDNVQFMIILKVMPGNGNSVGALIDNLDWPEKAGTICGDDTCLIICRSEENAKTLTDRFIDML", "values": [{"measurement": "stoichiometry N", "value": "3 and 6"}]}]}
